Assay results: US20240263193A1
Substitutions are numbered along the chain they refer to. Blank lines part the entries; values can stand above or below the substance they belong to.

Tests used:
Test in all cases: cell-based or functional assay
Bcl-TEV IRES iADAR = target: Bcl-TEV IRES iADAR
Bad(L) = target: T1, Bad(L)
T1 sequence (peptide): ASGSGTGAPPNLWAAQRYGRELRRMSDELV

BAD(V) = target: T2, BAD(V)
T2 sequence (peptide): T1 sequence (peptide) with L29V

BAD(G) = target: T3, BAD(G)
T3 sequence (peptide): T1 sequence (peptide) with L29G

Bad(F) = target: T4, Bad(F)
T4 sequence (peptide): T1 sequence (peptide) with L29F

[1] = target: T5, BAD (N-terminal BAD peptide)
T5 sequence (peptide): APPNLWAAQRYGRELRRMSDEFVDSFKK

MS1(I17A) = target: T6, MS1(I17A)
T6 sequence (peptide): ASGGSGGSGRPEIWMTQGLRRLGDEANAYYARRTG

MS1(I17G) = target: T7, MS1(I17G)
T7 sequence (peptide): T6 sequence (peptide) with A26G

Sequence of Bcl-xL (Q07817 4-198 limits assumed): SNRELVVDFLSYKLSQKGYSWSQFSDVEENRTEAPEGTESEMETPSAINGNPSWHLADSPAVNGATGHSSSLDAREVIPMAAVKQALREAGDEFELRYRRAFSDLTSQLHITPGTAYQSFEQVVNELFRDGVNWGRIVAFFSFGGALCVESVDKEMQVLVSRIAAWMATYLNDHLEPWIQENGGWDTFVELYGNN
Sequence of Mcl-1 (Q07820 172-327 limits assumed): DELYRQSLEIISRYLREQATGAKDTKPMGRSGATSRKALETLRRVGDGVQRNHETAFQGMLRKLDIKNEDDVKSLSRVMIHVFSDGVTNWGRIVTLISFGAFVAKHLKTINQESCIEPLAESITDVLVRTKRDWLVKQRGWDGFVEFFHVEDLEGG

Substance: TEV Protease (from UniProt P04517 2038-2271) (enzyme)
fold change of the mean RFU (mNeonGreen-to-mCherry), TEV protease against filler DNA, single-transcript IRES-iADAR, HEK cells, microscopy (Bcl-TEV IRES iADAR): 17 fold
fold change of the mean RFU (mNeonGreen-to-mCherry), dual addition of A-1331852 and TEV protease, single-transcript IRES-iADAR, HEK cells, microscopy (Bcl-TEV IRES iADAR): 32 fold

Fold Change, 1 µM against 0 µM A-1331852, HEK cells, flow cytometry (intramolecular pair) (Bad(L)): 23.2 fold
median ratio of mNeonGreen to mCherry, 0 µM A-1331852, HEK cells, flow cytometry (intramolecular pair) (Bad(L)): 0.0389
median ratio of mNeonGreen to mCherry, 1 µM A-1331852, HEK cells, flow cytometry (intramolecular pair) (Bad(L)): 0.903
Fold Change, 1 µM against 0 µM A-1331852, HEK cells, flow cytometry (intramolecular pair) (BAD(V)): 14.4 fold
median ratio of mNeonGreen to mCherry, 0 µM A-1331852, HEK cells, flow cytometry (intramolecular pair) (BAD(V)): 0.0708
median ratio of mNeonGreen to mCherry, 1 µM A-1331852, HEK cells, flow cytometry (intramolecular pair) (BAD(V)): 1.02
Fold Change, 1 µM against 0 µM A-1331852, HEK cells, flow cytometry (intramolecular pair) (BAD(G)): 9.65 fold
median ratio of mNeonGreen to mCherry, 0 µM A-1331852, HEK cells, flow cytometry (intramolecular pair) (BAD(G)): 0.1
median ratio of mNeonGreen to mCherry, 1 µM A-1331852, HEK cells, flow cytometry (intramolecular pair) (BAD(G)): 0.968
Fold Change, 1 µM against 0 µM A-1331852, HEK cells, flow cytometry (intramolecular pair) (Bad(F)): 37 fold
median ratio of mNeonGreen to mCherry, 0 µM A-1331852, HEK cells, flow cytometry (intramolecular pair) (Bad(F)): 0.026
median ratio of mNeonGreen to mCherry, 1 µM A-1331852, HEK cells, flow cytometry (intramolecular pair) (Bad(F)): 0.962
fold change of mNeonGreen/mCherry with A-1331852, nBAD-ADAR-cBcl-xL with unmutated DD, HEK cells, microscopy (intramolecular pair) [1]: 5.9 fold
Substance: Bcl-xL (from UniProt Q07817 4-198)

fold change of mNeonGreen/mCherry with S63845, MS1(A)-Mcl1 ADAR with unmutated DD, HEK cells, microscopy (intramolecular pair) (MS1(I17A)): 12 fold
fold change of mNeonGreen/mCherry with S63845, MS1(I17G)-Mcl1 ADAR with unmutated DD, HEK cells, microscopy (intramolecular pair) (MS1(I17G)): 2.8 fold
Substance: Mcl-1 (from UniProt Q07820 172-327)
